The target of test [1] is C3b (human) (UniProt P01024). Put plainly: ELISA; competition: C3b coated on the plate; FH 25 nM and WT Sbi-III-IV 1,000 nM with a concentration series of FHRs, FH19-20 or FHR-1 1-2; 1 h 37°C, PBST-2% BSA; FH bound detected with OX-24. Background: An ELISA detects its analyte on a solid surface through an enzyme-linked reagent.
The target of test [2] is C3b (human) (UniProt P01024). The test can be described thus: ELISA; competition: C3b coated on the plate (0.25 ug/well); FH 25 nM with a concentration series of FHRs, FH19-20 or FHR-1 1-2, no Sbi; 1 h 37°C, PBST-2% BSA; FH bound detected with OX-24.

Sequence of factor H-related protein 1 (FHR-1), recombinant (Q03591 19-330): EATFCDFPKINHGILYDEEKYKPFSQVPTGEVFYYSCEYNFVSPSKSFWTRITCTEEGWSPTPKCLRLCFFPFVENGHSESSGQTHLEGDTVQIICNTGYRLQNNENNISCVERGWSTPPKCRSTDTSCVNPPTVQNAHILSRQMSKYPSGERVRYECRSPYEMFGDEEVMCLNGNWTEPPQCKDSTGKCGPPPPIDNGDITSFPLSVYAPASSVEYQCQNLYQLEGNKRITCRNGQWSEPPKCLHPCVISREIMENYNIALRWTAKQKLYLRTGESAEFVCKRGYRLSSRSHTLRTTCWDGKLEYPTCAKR

In the test with C3b (human) [1], “factor H-related protein 1 (FHR-1), recombinant (from UniProt Q03591 19-330) (natural protein)” registered a percent residual FH bound to C3b at the highest FHR-1 concentration, with Sbi-III-IV WT of 0% and a percent residual FH bound to C3b at the lowest FHR-1 concentration, with Sbi-III-IV WT of 25%. Also, in the test with C3b (human) [2], the percent residual FH bound to C3b at the highest FHR-1 concentration turned out to be 30% and the percent residual FH bound to C3b at the lowest FHR-1 concentration came to 70%.

These data come from paper PMC6336717.
